{
  "source": "the nanobody polyreactivity screen of Harvey et al. (2022)",
  "data": [
    {"test": "yeast display, Sf9 membrane polyspecificity reagent, FACS + sequencing; frameworks hold sequencing errors", "in_short": "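A synthetic nanobody library was expressed on Saccharomyces cerevisiae BJ5465 by galactose induction for 36–48 hours. The library was stained for 1 hour at 4 °C with 10% biotinylated, detergent-solubilized Sf9 membrane reagent and enriched with streptavidin microbeads before FACS. Low and high (top ~1%) gates were set on anti-HA fluorescence for expression and streptavidin fluorescence for reagent binding, and each polyreactivity label reflects the gate of origin.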", "values": [
      {"sequence": "QVQLVESGGGLVQAGGSLRLSCAASGSTFSYNAMGWYRQAPGKERELVAAITSGSSTNYADSVKGRFTISRDNAKNTVYLQMNSLKPEDTAVYYCAADGYQDKYYWLENWVGYWGQGTQVTVSS", "polyreactivity (PSR sort gate)": "low polyreactivity"},
      {"sequence": "QVQLVESGGGLVQAGGSLRLSCAASGSTFSYNAMGWYRQAPGKERELVATITTGGRTSYADSVKGRFTISRDNAKNTVYLQMNSLKPEDTAVYYCAAVGRFSSRPRVVYYGYDYWGQGTQVTVSS", "polyreactivity (PSR sort gate)": "low polyreactivity"},
      {"sequence": "QVQLVESGGGLVQAGGSLRLSCAASGSTFSYNAMGWYRQAPGKVRELVASINSRGGTTYYADSVKGRFTISRDNAKNTVYLQMNSLKPEDTAVYYCATDVYRLGEYDYWGQGTQVTVSS", "polyreactivity (PSR sort gate)": "low polyreactivity"},
      {"sequence": "QVQLVESGGGLVQAGGSLRLSCAASGSTFSYYAMGWYRQAPGKERDLVAAISTDGGSTYYADSVKGRFTISRDNAKNTVYLQMNSLKPEDTAVYYCAALVGYYQYVWDLTYTVVEYNYWGQGTQVNVSS", "polyreactivity (PSR sort gate)": "low polyreactivity"},
      {"sequence": "QVQLVESGGGLVQAGGSLRLSCAASGSTFSYYAMGWYRQAPGKERELVAAISSRGGSTYYADSVKGRFTISRDNAMNNVYLQMNSLKPEDTAVYFCNADHQFRSSVSGDHDFWGQGTQVTVSS", "polyreactivity (PSR sort gate)": "high polyreactivity"},
      {"sequence": "QVQLVESGGGLVQAGGSLRLSCAASGSTFSYYAMGWYRQAPGKERELVAAITYSVGSTYYADSVKGRFTISRDNAKNTVYLQMNSLKPEDTAVYYCNKRYYYSRANYPYDYWGQGTQVTVSS", "polyreactivity (PSR sort gate)": "low polyreactivity"},
      {"sequence": "QVQLVESGGGLVQAGGSLRLSCAASGSTFSYYTMGWYRQAPGKERELVAAISFSGGSTYYADSVKGRFTISRDNAKNTVYLQMNSLKPEDTAVYYCAAKGYVGRYDYWGQGTQVTVSS", "polyreactivity (PSR sort gate)": "high polyreactivity"},
      {"sequence": "QVQLVESGGGLVQAGGSLRLSCAASGSTFTANAMGWYRQAPGKERELVASISARDGSTYADSVKGRFTISRDNAKKTVYLQMNSLKPEDTAVYYCNAAYFHIFPYDYDYWGQGTQVTVSS", "polyreactivity (PSR sort gate)": "low polyreactivity"},
      {"sequence": "QVQLVESGGGLVQAGGSLRLSCAASGSTFTDYDMGWYRQAPGKERELVAAITSGGSTNYADSVKGRCTISRDNAKNTVYLQMNRLKPEDTAVYYWAAADADSKYDYWGQGTQVTVSS", "polyreactivity (PSR sort gate)": "low polyreactivity"},
      {"sequence": "QVQLVESGGGLVQAGGSLRLSCAASGSTFTDYDMGWYRQAPGKERELVAAITSGGSTNYADSVKGRITISRDNAKNTVYLQMNSLKPEDTAVYYCAAADADRKYDYWGQGTQVTVSS", "polyreactivity (PSR sort gate)": "low polyreactivity"},
      {"sequence": "QVQLVESGGGLVQAGGSLRLSCAASGSTFTDYDMGWYRQAPGTERELVAAITSGCSTNYADSVKGRFTISRDNAKNTVYLQMNSLKPEDTAVYYCAAADADRKYDYWGQGTQVTVTS", "polyreactivity (PSR sort gate)": "low polyreactivity"},
      {"sequence": "QVQLVESGGGLVQAGGSLRLSCAASGSTFTEYAMGWYRQAPGKERELVAAITNSGSSTNYEDSVKGRFTISRDNAKNTVYLQMNSLKPEDTAVYYCNASSYPWEYYYLYYGYDYWGQGTQVTVSS", "polyreactivity (PSR sort gate)": "low polyreactivity"},
      {"sequence": "QVQLVESGGGLVQAGGSLRLSCAASGSTFTFYAMGSYRQAPGKERELGAAINGRGGSTYYADSVKGRFTISRDNANNTVYLQMNSLKPEDTADYYCATRLYYSVRYNMGYWGQGTQVTVSS", "polyreactivity (PSR sort gate)": "high polyreactivity"},
      {"sequence": "QVQLVESGGGLVQAGGSLRLSCAASGSTFTGNAMGWYRQAPGKERELVAAITDRGGSTYADSVKGRFTISRDNAKNTVYLQMNSLKPEDTAVYYCATRRDLHDRYEYDYWGQGTQVTVSS", "polyreactivity (PSR sort gate)": "low polyreactivity"},
      {"sequence": "QVQLVESGGGLVQAGGSLRLSCAASGSTFTGNAMGWYRQAPGKERELVASINGSSGSTYYADSVKGRFTISRDNAKNTVYLQMNSLKPEDTAVYYCAKDSFLHFPLVGWVGLEYWGQGTQVTVSS", "polyreactivity (PSR sort gate)": "low polyreactivity"},
      {"sequence": "QVQLVESGGGLVQAGGSLRLSCAASGSTFTGNAMGWYRQAPGKERELVASISTGGSTNYADSVKGRFTISRDNAKNTVYLQMNSLKPEDTAVYYCATDYCFKDSVVDFDYWGQGTQVTVSS", "polyreactivity (PSR sort gate)": "low polyreactivity"},
      {"sequence": "QVQLVESGGGLVQAGGSLRLSCAASGSTFTGYAMAWYRQAPGKERELVAAISSDGGSTYYADSVKGRFTMSRDNAKNTVYLQMNSLKPEDTAVYYCAALVYVSGYGYYYWGQGTQVTVSS", "polyreactivity (PSR sort gate)": "high polyreactivity"},
      {"sequence": "QVQLVESGGGLVQAGGSLRLSCAASGSTFTGYAMGWYRPAPGKESELVAAISISGGRTFYADSVKGRFTISRDNAKNTVYLQMNSLKPEDTSVYYCAVYRRGGVEAFLYWGQGTQVTVSS", "polyreactivity (PSR sort gate)": "high polyreactivity"},
      {"sequence": "QVQLVESGGGLVQAGGSLRLSCAASGSTFTGYAMGWYRQAPGKERELVAAISRSGGSTYYADSVKGRFTISRDNAKNTVYLQMNSLKPEDTAVYYCYVDPSARRYVYWGQGTQVTVSS", "polyreactivity (PSR sort gate)": "high polyreactivity"},
      {"sequence": "QVQLVESGGGLVQAGGSLRLSCAASGSTFTGYAMGWYRQAPGKERELVAAISRSVGRTYYADSVKGRFTISRDNAKNTVYLQMNSLKPEETAVYYCAADVFLTGSRNYYWGQGTQVTVSS", "polyreactivity (PSR sort gate)": "high polyreactivity"},
      {"sequence": "QVQLVESGGGLVQAGGSLRLSCAASGSTFTGYTKGWYRQAPGKERELVAAITYRGGSTYYADSVKGRFTISRDNAKNTVYLQMNSLKPEDTAVYYCAAVPEYYEYSPYDYWGQGTQVTVSS", "polyreactivity (PSR sort gate)": "low polyreactivity"},
      {"sequence": "QVQLVESGGGLVQAGGSLRLSCAASGSTFTHYDMGWYRQAPGKERELVADISRSGGRTYYADSVKGRFTISRDNAKNTVYLQMNSLKPEDTAVYYCATEFEHINGVNQGPYIDDYSWGQGSQVTVSS", "polyreactivity (PSR sort gate)": "low polyreactivity"},
      {"sequence": "QVQLVESGGGLVQAGGSLRLSCAASGSTFTINVMGSYRQAPGKERELVAAINGGGRTNYADSVKGRFTISRDNAKNTVYLQMNSLKPEDTAVYYCAADGLSNVRQMDYWGQGTQVTVSS", "polyreactivity (PSR sort gate)": "low polyreactivity"},
      {"sequence": "QVQLVESGGGLVQAGGSLRLSCAASGSTFTIYAMGWYRQAPGKERELVAAITWNGGSTYYADSVKGRFTISRDNAKKTVYLQMNRLKPEDTAVYYCAAKFRYQYVRVAREYYYWGQGTQVTVSS", "polyreactivity (PSR sort gate)": "high polyreactivity"},
      {"sequence": "QVQLVESGGGLVQAGGSLRLSCAASGSTFTIYAMGWYRQAPGKERELVAGITRVGSTNYADSVKGRFTISRDNAKYTVYLQMNSLKPEDTAVYYCARRDLFQAGYEYWGQGTQVTVSS", "polyreactivity (PSR sort gate)": "low polyreactivity"},
      {"sequence": "QVQLVESGGGLVQAGGSLRLSCAASGSTFTIYDMGWSRQAPGKERELVASISQGAGSTYYADSVKGRFTISRDNAKNTVYLQMNSQKPEDTAVYYCAADWYQSYVFVYWEGEYWAQGTQVTVSS", "polyreactivity (PSR sort gate)": "high polyreactivity"},
      {"sequence": "QVQLVESGGGLVQAGGSLRLSCAASGSTFTIYVIGWYRTAPGKERELVAAINGGGRTNYADSVKGRFTISRDNAKNTVYLQMNSLKPEDTAVYYCAADGLSNVRQMDYWGQGTQVTVSS", "polyreactivity (PSR sort gate)": "low polyreactivity"},
      {"sequence": "QVQLVESGGGLVQAGGSLRLSCAASGSTFTKYAMGWYRQEPGKDREFVAGINYSGGSTYYADSVKVRFTISRDNAKNTVYLLMKSLKPEDTAVYYCNARKQNRRGAKYDYWGQGTQVTVSS", "polyreactivity (PSR sort gate)": "high polyreactivity"},
      {"sequence": "QVQLVESGGGLVQAGGSLRLSCAASGSTFTLNAMGWYRQAPGKERELVADISWSSGRTYYADSVKGRFTISRDNAKNTVYFQMNSLKPEDTAVYYCATDDFWNVKFYAYYPEFDYWGQGTQVTVSS", "polyreactivity (PSR sort gate)": "low polyreactivity"},
      {"sequence": "QVQLVESGGGLVQAGGSLRLSCAASGSTFTLNAMGWYRQAPGKERELVADISWSSGRTYYADSVKGRVTISRDNAKNTVYLQMNSLKPEDTAVYYCATDDFWNVKFYAYYPDFDHWGQGTQVTVSS", "polyreactivity (PSR sort gate)": "low polyreactivity"},
      {"sequence": "QVQLVESGGGLVQAGGSLRLSCAASGSTFTLYAMGWYRQAPGKERELVAAISGIGDSTYYADSVKGRFTISRDNAKNTVYLQMNSLKPEDTAVYYCAADGEYRYDWEYESWGQGTKVTVSS", "polyreactivity (PSR sort gate)": "low polyreactivity"},
      {"sequence": "QVQLVESGGGLVQAGGSLRLSCAASGSTFTLYAMGWYRQAPGKERELVAAISWSSGSTYYADSVKGRFTISRDNAKNTVYLQMNSLKPEDTAVYYCNARRFGLTQYYYWGQGTQVTVSS", "polyreactivity (PSR sort gate)": "low polyreactivity"},
      {"sequence": "QVQLVESGGGLVQAGGSLRLSCAASGSTFTLYAMGWYRQAPGKERELVAAISWSTTSTYYADSVKGRFTISRDNAKNTVYLQMNSLKPEDTAVYYCAAELYRAEYDYWGQGTQVTVSS", "polyreactivity (PSR sort gate)": "high polyreactivity"},
      {"sequence": "QVQLVESGGGLVQAGGSLRLSCAASGSTFTNNDMGWYRPAPGKERELVAAITDSDGITYYADSVKGRFTISRDNAKNTVYLQMNSLKPDDSAVYYCAAYYYGSVAQDREYWGQGTQVTVSS", "polyreactivity (PSR sort gate)": "high polyreactivity"},
      {"sequence": "QVQLVESGGGLVQAGGSLRLSCAASGSTFTNYAMGWYRPAPGKERELVARITSSGSRTYYADSVKGRFTISRDNAKNTVYLQMNSLKPEDTAVYYCNAETYYLRYGRGYRRFDYWGQGTQVTVSS", "polyreactivity (PSR sort gate)": "high polyreactivity"},
      {"sequence": "QVQLVESGGGLVQAGGSLRLSCAASGSTFTPNAMGWYRQAPGKERELVAAIRYTGVGTYYADSVKGRFTISRDNAKNTVYLQMNSLKPEDTAVYYCNRVSRYYNYDYWGQGTQVTVSS", "polyreactivity (PSR sort gate)": "high polyreactivity"},
      {"sequence": "QVQLVESGGGLVQAGGSLRLSCAASGSTFTPNAMVWYRQAPGKERELVAAINWSDSSTYYADSVKGRFTISRDNAKNTVYLQMNSLKPEDTAVYYCAAAAQYGQLQVPVYYWGQGTQVTVSS", "polyreactivity (PSR sort gate)": "low polyreactivity"},
      {"sequence": "QVQLVESGGGLVQAGGSLRLSCAASGSTFTPYAMGWYRQAPGQEREFVAAITSIGGSTYYADSVKGRITISRDNAKNTVYLQMIRLKPEDTAVYNCAADYSEWTLWNDYWGQCTQVTVSS", "polyreactivity (PSR sort gate)": "high polyreactivity"},
      {"sequence": "QVQLVESGGGLVQAGGSLRLSCAASGSTFTPYGMGWYRQAPGKERELVAAITVSGGRTYYADSVKGRFTISRDNAKNTVYLQMNSLKPEDTAVYYCAAVYLRGDGEYDYWGQGTQVTVSS", "polyreactivity (PSR sort gate)": "low polyreactivity"},
      {"sequence": "QVQLVESGGGLVQAGGSLRLSCAASGSTFTPYTMGWYRKAPGKETELVAAIRYGGGSTYYADSVKGRFTISRDNAKNTVYLQMNSLKPEDTAVYYCAVDSFYSGGTYDSDGYWGQGTQVTVSS", "polyreactivity (PSR sort gate)": "low polyreactivity"},
      {"sequence": "QVQLVESGGGLVQAGGSLRLSCAASGSTFTRNAMGWYRPAPGKERELVAAITSSGGYTYYADSVKGRFTISRDNAKNTVYLQMNSLKPEDTAVYYCAAYPHRPRDRELDHWGQGTQVTVSS", "polyreactivity (PSR sort gate)": "low polyreactivity"},
      {"sequence": "QVQLVESGGGLVQAGGSLRLSCAASGSTFTRYVMGWYRQAPGKERELVAAISKRGGSTYYADSVKGRFTISRDNAKHTVYLQMNSLKPVDPAVYYCNRVSRAPFDYWGQGTQVTVSS", "polyreactivity (PSR sort gate)": "high polyreactivity"},
      {"sequence": "QVQLVESGGGLVQAGGSLRLSCAASGSTFTRYVMGWYRQAPGKERELVAAISKRGGSTYYADSVKGRFTISRDNAKNTVYLQMNSLKPEDTAVYYCNRVSRAPFDYWGQGTQVTVSS", "polyreactivity (PSR sort gate)": "high polyreactivity"}
    ]}
  ]
}
